B1: GFP-tagged MyD88 TIR domain (residues 159-296) (domain or fragment, human, UniProt Q99836 159-296, looked up)
chain: ERFDAFICYCPSDIQFVQEMIRQLEQTNYRLKLCVSDRDVLPGTCVWSIASELIEKRCRRMVVVVSDDYLQSKECDFQTKFALSLSPGAHQKRLIPIKYKAMKKEFPSILRFITVCDYTNPCTKSWFWTRLAKALSLP
notes: MyD88 TIR domain, residues 159-296; also called TIR domain alone; source: in vitro translated in Leishmania tarentolae extract (LTE), measured without purification; not shown: GFP, N-terminal, kept
B2: GFP-tagged MyD88 death domain (residues 1-117, includes part of the intermediate domain) (domain or fragment, human, UniProt Q99836 1-117, looked up)
chain: MAAGGPGAGSAAPVSSTSSLPLAALNMRVRRRLSLFLNVRTQVAADWTALAEEMDFEYLEIRQLETQADPTGRLLDAWQGRPGASVGRLLELLTKLGRDDVLLELGPSIEEDCQKYI
notes: MyD88 death domain with the crucial part of the intermediate domain, residues 1-117; also called DD; death domain alone; source: in vitro translated in Leishmania tarentolae extract (LTE), measured without purification; not shown: GFP, N-terminal, kept

Target: the molecule itself
Assay: single-molecule fluorescence fluctuation spectroscopy (brightness B parameter, time-traces, intensity histograms); GFP-tagged protein freely diffusing in the cell-free expression mixture on a confocal microscope, 488-nm laser; dilution series of the DNA template giving 0 to about 320 nM protein; mutants compared at 150 nM; samples diluted 10 times in buffer A

Protein | average brightness B (> 150 nM) relative to monomeric sfGFP [fold over monomeric GFP]
B1 | ~4
B2 | ~8
